From patent US20080038735A1 (DOMANTIS, published 2008)
Changes are numbered by the printed parent chain.

B1: Vk(TAR1-5-19) (other)
VL: MASTDIQMTQSPSSLSASVGDRVTITCRASQSIDSYLHWYQQKPGKAPKLLIYSASELQSGVPSRFSGSGSGTDFTLTISSLQPEDFATYYCQQVVWRPFTFGQGTKVEIKRAA
notes: Vk domain antibody tested as free dAb; also called free dAb; monomeric domain antibody in solution
B2: Vk(E5) (other)
VL: B1 VL with I33V, D34S, H38N, S54L, E57R, V95N, V96W, R98L, F100P
notes: also called Anti-beta-galactosidase Vk clone E5; 7t^3T.Vk(E5)

Tests used:
[1] = target: T1, TNFa (UniProt P01375 77-233, biotinylated (sites not given)); assay: not stated (told as a known affinity); higher affinity dAb, known affinity
T1 construct: also called biotinylated TNFa; bio-TNFa

[2] = target: T1, TNFa; assay: ELISA: in vitro translated dAb captured on the plate, incubated with a concentration range of biotinylated TNFa, detected with streptavidin-HRP
Experimental: (§1) The ligation mixture was transformed to XL-10 gold cells (Stratagene) and cells were plated. […] The typical amplification cycle for this PCR is performed with platinum pfx DNA polymerase (invitrogen) and consists of: initial denaturation of 3 min at 95 C, followed by 25 cycles of 30 seconds at 95 C, 30 seconds at 60 C, and 2 minutes at 68 C; and a final extension at 68 C for 3 minutes. The PCR product is cleaned on a Qiagen spin column, eluted and the DNA concentration determined by OD 260/280. The cleaned PCR product is used for in vitro transcription/translation (IVT). A typical 50 μl IVT reaction consists of 500 ng of DNA, 2.0 λl methionine (5 mM), 1.5 μl oxidized glutathione (100 mM) (Sigma), 35 μl bacterial extract, e.g. EcoPro (Novagen), and 11 μl H₂O. The IVT reaction can be performed for 1 up to 4 hours at temperatures between 20 C and 37 C. After IVT, the reaction is diluted 1 in 10 in PBS+0.2% tween-20. Fifty μl are added to an ELISA plate, that has been coated with anti-HA (3F10, Roche) (1 μg/ml in PBS), and incubated for 1 hour at room temperature. After washing, a concentration range (0-500 nM) of biotinylated antigen, i.e. TNFa, is added and incubated on the plate for 1 hour. Again, plate is washed and streptavidin conjugated to horse radish peroxidase (Streptavidin-HRP, Amersham) at a dilution of 1:3500 is added and incubated on the plate for 30 minutes.

[3] = target: T1, TNFa; assay: ELISA: in vitro translated E5 construct captured on the plate, incubated with a concentration range of biotinylated TNFa, streptavidin-HRP; the sheet does not say whether E5 is free or fused to Tus
Experimental: as §1

T1 sequence (P01375 77-233 limits assumed): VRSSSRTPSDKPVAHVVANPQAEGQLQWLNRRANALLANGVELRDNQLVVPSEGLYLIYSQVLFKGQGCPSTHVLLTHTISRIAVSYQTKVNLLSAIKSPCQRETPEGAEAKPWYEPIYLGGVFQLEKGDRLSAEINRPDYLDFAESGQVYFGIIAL

Binder | Kd [1] | EC50 (read off the curve) [2] | binding result [3]
B1 | 50 nM | ~7 nM | 
B2 |  |  | no binding (tested: 1000 nM)
